We go through one protein from patent US20140242061.

In the series the target is T1, human macrophage mannose receptor (MMR), P22897.
T1 chain: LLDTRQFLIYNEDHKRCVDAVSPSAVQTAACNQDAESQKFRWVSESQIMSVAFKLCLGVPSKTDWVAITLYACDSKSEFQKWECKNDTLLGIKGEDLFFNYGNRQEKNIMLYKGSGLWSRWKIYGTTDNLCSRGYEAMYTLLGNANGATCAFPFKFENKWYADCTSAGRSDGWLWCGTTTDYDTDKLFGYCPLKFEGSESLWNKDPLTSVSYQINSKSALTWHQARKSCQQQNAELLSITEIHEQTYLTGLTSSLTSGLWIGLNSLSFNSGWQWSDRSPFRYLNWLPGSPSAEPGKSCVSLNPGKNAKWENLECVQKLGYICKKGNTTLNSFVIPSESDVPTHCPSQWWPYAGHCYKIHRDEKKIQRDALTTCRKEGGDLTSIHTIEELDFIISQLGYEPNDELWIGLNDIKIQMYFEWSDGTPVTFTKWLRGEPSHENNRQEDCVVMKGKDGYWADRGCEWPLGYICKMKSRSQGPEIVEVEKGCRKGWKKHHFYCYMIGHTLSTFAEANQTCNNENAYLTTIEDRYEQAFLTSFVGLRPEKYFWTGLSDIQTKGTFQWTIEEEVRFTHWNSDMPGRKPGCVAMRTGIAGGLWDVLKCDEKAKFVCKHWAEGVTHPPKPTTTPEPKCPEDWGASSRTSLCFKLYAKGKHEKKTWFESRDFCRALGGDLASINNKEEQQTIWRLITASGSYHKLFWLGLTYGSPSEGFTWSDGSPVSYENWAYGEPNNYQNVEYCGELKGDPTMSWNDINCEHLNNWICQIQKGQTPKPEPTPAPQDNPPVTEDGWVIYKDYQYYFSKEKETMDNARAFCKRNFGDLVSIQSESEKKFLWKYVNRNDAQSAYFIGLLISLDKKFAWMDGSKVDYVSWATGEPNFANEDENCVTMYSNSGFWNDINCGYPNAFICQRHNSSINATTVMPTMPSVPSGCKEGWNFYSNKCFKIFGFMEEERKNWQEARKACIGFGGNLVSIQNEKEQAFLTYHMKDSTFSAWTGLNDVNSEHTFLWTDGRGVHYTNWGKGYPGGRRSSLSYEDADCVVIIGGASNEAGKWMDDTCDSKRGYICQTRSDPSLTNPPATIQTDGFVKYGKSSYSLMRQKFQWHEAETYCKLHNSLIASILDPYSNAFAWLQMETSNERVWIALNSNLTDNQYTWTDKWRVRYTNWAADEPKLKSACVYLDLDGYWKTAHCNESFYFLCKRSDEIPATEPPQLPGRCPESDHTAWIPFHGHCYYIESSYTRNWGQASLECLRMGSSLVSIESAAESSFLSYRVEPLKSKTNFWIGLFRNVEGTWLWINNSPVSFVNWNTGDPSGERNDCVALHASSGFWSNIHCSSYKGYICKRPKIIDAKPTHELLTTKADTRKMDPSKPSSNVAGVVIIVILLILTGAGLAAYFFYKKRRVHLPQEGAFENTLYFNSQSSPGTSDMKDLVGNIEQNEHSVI

B1: velaglucerase alfa (protein)
chain: ARPCIPKSFGYSSVVCVCNATYCDSFDPPTFPALGTFSRYESTRSGRRMELSMGPIQANHTGTGLLLTLQPEQKFQKVKGFGGAMTDAAALNILALSPPAQNLLLKSYFSEEGIGYNIIRVPMASCDFSIRTYTYADTPDDFQLHNFSLPEEDTKLKIPLIHRALQLAQRPVSLLASPWTSPTWLKTNGAVNGKGSLKGQPGDIYHQTWARYFVKFLDAYAEHKLQFWAVTAENEPSAGLLSGYPFQCLGFTPEHQRDFIARDLGPTLANSTHHNVRLLMLDDQRLLLPHWAKVVLTDPEAAKYVHGIAVHWYLDFLAPAKATLGETHRLFPNTMLFASEACVGSKFWEQSVRLGSWDRGMQYSHSIITNLLYHVVGWTDWNLALNPEGGPNWVRNFVDSPIIVDITKDTFYKQPMFYHLGHFSKFIPEGSQRVGLVASQKNDLDAVALMHPDGSAVVVVLNRSSKDVPLTIKDPAVGFLETISPGYSIHTYLWRRQ
Turning to B1, the “internalization rate in U937-derived macrophages (4-MU-glc activity assay), relative to imiglucerase” value is “velaglucerase alfa is internalized up to 2.5-fold more efficiently than imiglucerase”.
